Assay results from paper doi:10.1101/2022.05.05.490830.
Read-outs that look alike come from different tables or passages of the source.

What was measured:
Experiment in all cases: BLI
hPolεCD (E. coli) [1] = biological target: T1, hPolεCD (E. coli) (Homo sapiens, UniProt Q07864 28-1194)
hPolεCD (insect) = hPolεCD (insect) (Homo sapiens, UniProt Q07864 28-1194)
hPolεCD (E. coli) [2] = biological target: T1, hPolεCD (E. coli); remark: listed apart in the source

T1 sequence (Q07864 28-1194): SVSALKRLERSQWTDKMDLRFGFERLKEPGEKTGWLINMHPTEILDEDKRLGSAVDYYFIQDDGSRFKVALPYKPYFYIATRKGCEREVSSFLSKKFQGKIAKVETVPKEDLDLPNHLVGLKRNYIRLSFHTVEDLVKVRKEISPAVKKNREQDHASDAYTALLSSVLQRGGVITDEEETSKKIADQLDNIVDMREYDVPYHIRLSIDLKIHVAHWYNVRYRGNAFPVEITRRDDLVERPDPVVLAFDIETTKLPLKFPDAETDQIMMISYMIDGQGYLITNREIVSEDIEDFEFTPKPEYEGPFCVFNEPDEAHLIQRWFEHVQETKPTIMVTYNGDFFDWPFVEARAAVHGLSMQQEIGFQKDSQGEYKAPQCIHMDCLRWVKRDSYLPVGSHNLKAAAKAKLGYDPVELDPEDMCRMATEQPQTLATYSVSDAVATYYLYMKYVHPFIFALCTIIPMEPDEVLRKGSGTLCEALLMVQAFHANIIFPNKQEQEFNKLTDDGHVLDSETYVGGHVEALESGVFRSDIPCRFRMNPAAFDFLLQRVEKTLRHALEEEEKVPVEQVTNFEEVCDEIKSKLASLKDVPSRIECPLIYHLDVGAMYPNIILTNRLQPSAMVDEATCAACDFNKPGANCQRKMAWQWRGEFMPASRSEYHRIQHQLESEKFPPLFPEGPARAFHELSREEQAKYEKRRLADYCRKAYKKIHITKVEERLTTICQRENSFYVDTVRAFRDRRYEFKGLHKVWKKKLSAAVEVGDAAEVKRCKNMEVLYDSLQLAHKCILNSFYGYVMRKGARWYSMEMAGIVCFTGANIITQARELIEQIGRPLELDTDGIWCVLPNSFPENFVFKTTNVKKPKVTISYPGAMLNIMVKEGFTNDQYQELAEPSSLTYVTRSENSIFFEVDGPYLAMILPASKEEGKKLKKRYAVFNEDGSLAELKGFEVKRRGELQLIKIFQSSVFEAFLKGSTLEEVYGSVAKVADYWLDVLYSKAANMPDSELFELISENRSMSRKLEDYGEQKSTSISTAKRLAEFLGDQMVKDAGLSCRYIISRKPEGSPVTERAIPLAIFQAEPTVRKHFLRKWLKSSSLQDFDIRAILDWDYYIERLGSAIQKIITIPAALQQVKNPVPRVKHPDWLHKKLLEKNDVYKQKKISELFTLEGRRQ
Chain of hPolεCD (insect) (Q07864 28-1194): as above

B1: Octet template:primer 23/11 (dsDNA)
DNA 1: AATACATAAGCGCTCCAGGCAAT
DNA 2: GCCTGGAGCGC
modifications: 3' dideoxycytidine on primer
Work on B1 yielded a Kd (hPolεCD (E. coli) [1]) of 167 ± 24 nM, a Kd (hPolεCD (insect)) of 213 ± 43 nM and a Kd (hPolεCD (E. coli) [2]) of 3260 ± 386 nM.
